# Article PMC11077089, “Molecular basis of A. thaliana KEOPS complex in biosynthesizing tRNA t6A”
# T1: KAE1;BUD32 K55E;CGI121;PCC1 (Arabidopsis thaliana;Arabidopsis …, UniProt O49653;Q94K14;Q6NMZ4;Q8GWD7 1-353;1-226;1-172;1-96, |K55E||)
# T1 sequence 1: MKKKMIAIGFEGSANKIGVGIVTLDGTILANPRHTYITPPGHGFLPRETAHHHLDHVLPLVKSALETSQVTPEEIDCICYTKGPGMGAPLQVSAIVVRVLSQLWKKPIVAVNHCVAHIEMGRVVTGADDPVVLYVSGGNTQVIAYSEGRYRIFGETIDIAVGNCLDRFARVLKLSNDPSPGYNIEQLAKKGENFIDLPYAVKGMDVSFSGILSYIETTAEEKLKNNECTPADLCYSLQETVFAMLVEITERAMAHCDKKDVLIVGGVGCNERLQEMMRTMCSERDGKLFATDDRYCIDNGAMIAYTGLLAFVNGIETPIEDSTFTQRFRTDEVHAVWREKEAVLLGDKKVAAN
# T1 sequence 2: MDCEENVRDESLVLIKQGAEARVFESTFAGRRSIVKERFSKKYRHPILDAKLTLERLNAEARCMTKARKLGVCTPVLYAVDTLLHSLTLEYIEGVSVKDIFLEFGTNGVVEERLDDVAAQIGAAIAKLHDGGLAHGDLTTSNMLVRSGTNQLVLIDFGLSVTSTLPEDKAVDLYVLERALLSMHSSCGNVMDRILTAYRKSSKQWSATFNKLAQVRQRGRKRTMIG
# T1 sequence 3: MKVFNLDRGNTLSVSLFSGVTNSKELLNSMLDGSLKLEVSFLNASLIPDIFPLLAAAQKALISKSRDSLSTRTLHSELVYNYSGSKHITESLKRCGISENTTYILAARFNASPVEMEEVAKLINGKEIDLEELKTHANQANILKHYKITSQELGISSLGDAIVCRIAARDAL
# T1 sequence 4: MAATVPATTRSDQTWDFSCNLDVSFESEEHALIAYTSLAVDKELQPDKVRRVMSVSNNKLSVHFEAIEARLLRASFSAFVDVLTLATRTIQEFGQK
# T2: BUD32;CGI121 (Arabidopsis thaliana;Arabidopsis …, UniProt Q94K14;Q6NMZ4 1-226;1-172, |)
# T2 sequence 1: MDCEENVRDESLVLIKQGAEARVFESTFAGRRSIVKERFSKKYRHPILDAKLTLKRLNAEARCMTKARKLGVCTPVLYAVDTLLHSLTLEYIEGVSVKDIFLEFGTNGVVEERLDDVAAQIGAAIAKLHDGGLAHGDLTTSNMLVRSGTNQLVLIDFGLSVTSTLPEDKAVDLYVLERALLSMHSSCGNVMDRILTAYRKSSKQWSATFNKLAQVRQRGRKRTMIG
# T2 sequence 2: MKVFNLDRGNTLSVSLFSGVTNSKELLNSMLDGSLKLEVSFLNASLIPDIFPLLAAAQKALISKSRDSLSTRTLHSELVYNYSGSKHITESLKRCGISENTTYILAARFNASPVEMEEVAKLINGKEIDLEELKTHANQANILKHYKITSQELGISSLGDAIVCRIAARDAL
# T3: KAE1 mutant-1;BUD32;CGI121;PCC1 (Arabidopsis thaliana;Arabidopsis …, UniProt O49653;Q94K14;Q6NMZ4;Q8GWD7 1-353;1-226;1-172;1-96, Y36R;I37K;T38R;P39R;P40R;G41W;H42D|||)
# T3 sequence 1: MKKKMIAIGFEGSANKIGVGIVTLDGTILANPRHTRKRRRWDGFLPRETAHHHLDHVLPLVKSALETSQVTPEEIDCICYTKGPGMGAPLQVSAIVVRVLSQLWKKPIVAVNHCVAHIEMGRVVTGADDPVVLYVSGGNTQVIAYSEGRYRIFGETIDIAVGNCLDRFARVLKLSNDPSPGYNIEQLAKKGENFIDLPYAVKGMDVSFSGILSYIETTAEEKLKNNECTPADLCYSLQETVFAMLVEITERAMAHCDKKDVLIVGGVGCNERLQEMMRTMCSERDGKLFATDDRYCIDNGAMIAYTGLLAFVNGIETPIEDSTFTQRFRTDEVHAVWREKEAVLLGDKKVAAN
# T3 sequence 2: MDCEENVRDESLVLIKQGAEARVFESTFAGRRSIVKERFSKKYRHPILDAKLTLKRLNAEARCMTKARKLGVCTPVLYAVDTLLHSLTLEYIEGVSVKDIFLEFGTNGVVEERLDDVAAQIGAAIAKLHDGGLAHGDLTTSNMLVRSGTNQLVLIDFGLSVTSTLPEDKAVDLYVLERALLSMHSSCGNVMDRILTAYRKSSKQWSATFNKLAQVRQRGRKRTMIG
# T3 sequence 3: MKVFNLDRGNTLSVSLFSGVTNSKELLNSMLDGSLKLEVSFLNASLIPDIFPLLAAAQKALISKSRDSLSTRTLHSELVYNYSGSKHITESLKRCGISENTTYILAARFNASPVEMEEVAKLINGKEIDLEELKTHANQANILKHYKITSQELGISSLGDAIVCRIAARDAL
# T3 sequence 4: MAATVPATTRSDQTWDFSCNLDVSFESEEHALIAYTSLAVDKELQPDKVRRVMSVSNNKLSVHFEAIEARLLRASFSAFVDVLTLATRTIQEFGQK
# T4: KAE1;BUD32;PCC1 (Arabidopsis thaliana;Arabidopsis …, UniProt O49653;Q94K14;Q8GWD7 1-353;1-226;1-96, ||)
# T4 sequence 1: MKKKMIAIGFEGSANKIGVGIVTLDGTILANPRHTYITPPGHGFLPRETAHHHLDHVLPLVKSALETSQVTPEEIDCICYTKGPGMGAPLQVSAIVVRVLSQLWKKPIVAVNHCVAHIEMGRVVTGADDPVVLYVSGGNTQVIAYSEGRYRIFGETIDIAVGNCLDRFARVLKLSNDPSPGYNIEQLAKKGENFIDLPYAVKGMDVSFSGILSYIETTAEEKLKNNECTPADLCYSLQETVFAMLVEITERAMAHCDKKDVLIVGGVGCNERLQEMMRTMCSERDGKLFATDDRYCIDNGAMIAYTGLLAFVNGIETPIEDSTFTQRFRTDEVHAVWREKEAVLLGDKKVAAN
# T4 sequence 2: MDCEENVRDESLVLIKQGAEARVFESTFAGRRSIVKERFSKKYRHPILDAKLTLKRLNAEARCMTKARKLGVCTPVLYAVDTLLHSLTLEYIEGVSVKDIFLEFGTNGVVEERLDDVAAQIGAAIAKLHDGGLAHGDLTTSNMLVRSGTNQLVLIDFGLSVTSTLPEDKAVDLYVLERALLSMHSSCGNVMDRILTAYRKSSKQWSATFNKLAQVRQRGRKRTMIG
# T4 sequence 3: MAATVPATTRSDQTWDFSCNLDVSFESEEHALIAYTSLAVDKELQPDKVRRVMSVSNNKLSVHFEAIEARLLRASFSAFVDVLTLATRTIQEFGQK
# How the values were obtained:
# Assay in all cases: MST; MST: 20 mM PBS pH 7.5, 300 mM NaCl, 0.05% Tween 20, 25 C, 50 nM RNA; EMSA: 20 mM Tris-HCl pH 7.5, 300 mM NaCl, 5 mM b-mercaptoethanol, 20% glycerol, agarose gel in Tris-glycine pH 8.0 (8.5 for FAM-RNA), 4 C
# [1] = target: T1, KAE1;BUD32 K55E;CGI121;PCC1; conditions: protein: recombinant;recombinant;recombinant;recombinant; tags: none (6His on partner PCC1);;6His (C-term);6His (C-term); chain copies: 2;2;2;2; label: 5' 6-FAM; tRNA cloverleaf
# BUD32;CGI121 = target: T2, BUD32;CGI121; conditions: protein: recombinant;recombinant; tags: none (6His on partner CGI121);6His (C-term); copies: 1;1; label: 5' 6-FAM; tRNA cloverleaf
# [2] = target: T3, KAE1 mutant-1;BUD32;CGI121;PCC1; conditions: protein: recombinant;recombinant;recombinant;recombinant; tags: ;none (6His on partner CGI121);6His (C-term);6His (C-term); chain copies: 2;2;2;2; label: 5' 6-FAM; tRNA cloverleaf
# KAE1;BUD32;PCC1 = target: T4, KAE1;BUD32;PCC1; conditions: protein: recombinant;recombinant;recombinant; tags: none (6His on partner PCC1);none (6His on partner CGI121);6His (C-term); chain copies: 2;2;2; label: 5' 6-FAM; tRNA cloverleaf
binder,measurement,setting,value
5'-6FAM-tRNAArgCCU (structured_RNA) RNA: GCGCCUGUAGCUCAGUGGAUAGAGCGUCUGUUUCCUAAGCAGAAGGUCGUAGGUUCGACCCCUACCUGGCGCGCCA,Kd,[1],104 ± 15.2 µM
same,Kd,BUD32;CGI121,61.6 ± 15 µM
same,Kd,[2],5.27 ± 1.2 µM
same,Kd,KAE1;BUD32;PCC1,38 ± 13.6 µM
